Test results published in patent US20210388087A1 (Chugai, published 2021).

T1: Human CD3eg linker (human)
T1 construct: single-chain construct; also called recombinant human CD3
T1 chain: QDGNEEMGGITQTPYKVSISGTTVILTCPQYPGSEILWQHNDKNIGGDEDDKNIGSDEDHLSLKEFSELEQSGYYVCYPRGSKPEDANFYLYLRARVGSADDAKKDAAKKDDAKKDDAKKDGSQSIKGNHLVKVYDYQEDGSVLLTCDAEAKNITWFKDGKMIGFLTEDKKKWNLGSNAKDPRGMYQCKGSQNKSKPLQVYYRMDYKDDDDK


Target: T1, Human CD3eg linker
Test: SPR, vs unmutated H183/L072

Row | fold change of affinity [fold] | Binder
1 | 1.1 | dBBDu183H T100bQ/dBBDu072L (antibody, name in Kabat numbering, V domains shown) VH: QVQLVESGGGLVQPGRSLRLSCAASGFTFSNAWMHWVRQAPGKGLEWVAQIKDKGNAYAAYYAPSVKGRFTISRDDSKNSIYLQMNSLKTEDTAVYYCHYVHYASASQVLPAFGVDAWGQGTTVTVSS VL: DIVMTQSPLSLPVTPGEPASISCQASQELVHMNRNTYLHWYQQKPGQAPRLLIYKVSNRFPGVPDRFSGSGSGTDFTLKISRVEAEDVGVYYCAQGTSVPFTFGQGTKLEIK
2 | 1.2 | dBBDu183H V63Q/dBBDu072L (antibody, name in Kabat numbering, V domains shown) VH: QVQLVESGGGLVQPGRSLRLSCAASGFTFSNAWMHWVRQAPGKGLEWVAQIKDKGNAYAAYYAPSQKGRFTISRDDSKNSIYLQMNSLKTEDTAVYYCHYVHYASASTVLPAFGVDAWGQGTTVTVSS VL: DIVMTQSPLSLPVTPGEPASISCQASQELVHMNRNTYLHWYQQKPGQAPRLLIYKVSNRFPGVPDRFSGSGSGTDFTLKISRVEAEDVGVYYCAQGTSVPFTFGQGTKLEIK
3 | 1.3 | dBBDu183H V63D/dBBDu072L (antibody, name in Kabat numbering, V domains shown) VH: QVQLVESGGGLVQPGRSLRLSCAASGFTFSNAWMHWVRQAPGKGLEWVAQIKDKGNAYAAYYAPSDKGRFTISRDDSKNSIYLQMNSLKTEDTAVYYCHYVHYASASTVLPAFGVDAWGQGTTVTVSS VL: DIVMTQSPLSLPVTPGEPASISCQASQELVHMNRNTYLHWYQQKPGQAPRLLIYKVSNRFPGVPDRFSGSGSGTDFTLKISRVEAEDVGVYYCAQGTSVPFTFGQGTKLEIK
4 | 1 | dBBDu183H V63H/dBBDu072L (antibody, name in Kabat numbering, V domains shown) VH: QVQLVESGGGLVQPGRSLRLSCAASGFTFSNAWMHWVRQAPGKGLEWVAQIKDKGNAYAAYYAPSHKGRFTISRDDSKNSIYLQMNSLKTEDTAVYYCHYVHYASASTVLPAFGVDAWGQGTTVTVSS VL: DIVMTQSPLSLPVTPGEPASISCQASQELVHMNRNTYLHWYQQKPGQAPRLLIYKVSNRFPGVPDRFSGSGSGTDFTLKISRVEAEDVGVYYCAQGTSVPFTFGQGTKLEIK
5 | 1.8 | dBBDu183H T100bW/dBBDu072L (antibody, name in Kabat numbering, V domains shown) VH: QVQLVESGGGLVQPGRSLRLSCAASGFTFSNAWMHWVRQAPGKGLEWVAQIKDKGNAYAAYYAPSVKGRFTISRDDSKNSIYLQMNSLKTEDTAVYYCHYVHYASASWVLPAFGVDAWGQGTTVTVSS VL: DIVMTQSPLSLPVTPGEPASISCQASQELVHMNRNTYLHWYQQKPGQAPRLLIYKVSNRFPGVPDRFSGSGSGTDFTLKISRVEAEDVGVYYCAQGTSVPFTFGQGTKLEIK
6 | 1.2 | dBBDu183H T100bV/dBBDu072L (antibody, name in Kabat numbering, V domains shown) VH: QVQLVESGGGLVQPGRSLRLSCAASGFTFSNAWMHWVRQAPGKGLEWVAQIKDKGNAYAAYYAPSVKGRFTISRDDSKNSIYLQMNSLKTEDTAVYYCHYVHYASASVVLPAFGVDAWGQGTTVTVSS VL: DIVMTQSPLSLPVTPGEPASISCQASQELVHMNRNTYLHWYQQKPGQAPRLLIYKVSNRFPGVPDRFSGSGSGTDFTLKISRVEAEDVGVYYCAQGTSVPFTFGQGTKLEIK
7 | 1.3 | dBBDu183H V63N/dBBDu072L (antibody, name in Kabat numbering, V domains shown) VH: QVQLVESGGGLVQPGRSLRLSCAASGFTFSNAWMHWVRQAPGKGLEWVAQIKDKGNAYAAYYAPSNKGRFTISRDDSKNSIYLQMNSLKTEDTAVYYCHYVHYASASTVLPAFGVDAWGQGTTVTVSS VL: DIVMTQSPLSLPVTPGEPASISCQASQELVHMNRNTYLHWYQQKPGQAPRLLIYKVSNRFPGVPDRFSGSGSGTDFTLKISRVEAEDVGVYYCAQGTSVPFTFGQGTKLEIK
8 | 1 | dBBDu183H V63G/dBBDu072L (antibody, name in Kabat numbering, V domains shown) VH: QVQLVESGGGLVQPGRSLRLSCAASGFTFSNAWMHWVRQAPGKGLEWVAQIKDKGNAYAAYYAPSGKGRFTISRDDSKNSIYLQMNSLKTEDTAVYYCHYVHYASASTVLPAFGVDAWGQGTTVTVSS VL: DIVMTQSPLSLPVTPGEPASISCQASQELVHMNRNTYLHWYQQKPGQAPRLLIYKVSNRFPGVPDRFSGSGSGTDFTLKISRVEAEDVGVYYCAQGTSVPFTFGQGTKLEIK
9 | 1.8 | dBBDu183H T100bR/dBBDu072L (antibody, name in Kabat numbering, V domains shown) VH: QVQLVESGGGLVQPGRSLRLSCAASGFTFSNAWMHWVRQAPGKGLEWVAQIKDKGNAYAAYYAPSVKGRFTISRDDSKNSIYLQMNSLKTEDTAVYYCHYVHYASASRVLPAFGVDAWGQGTTVTVSS VL: DIVMTQSPLSLPVTPGEPASISCQASQELVHMNRNTYLHWYQQKPGQAPRLLIYKVSNRFPGVPDRFSGSGSGTDFTLKISRVEAEDVGVYYCAQGTSVPFTFGQGTKLEIK
10 | 1.3 | dBBDu183H V63K/dBBDu072L (antibody, name in Kabat numbering, V domains shown) VH: QVQLVESGGGLVQPGRSLRLSCAASGFTFSNAWMHWVRQAPGKGLEWVAQIKDKGNAYAAYYAPSKKGRFTISRDDSKNSIYLQMNSLKTEDTAVYYCHYVHYASASTVLPAFGVDAWGQGTTVTVSS VL: DIVMTQSPLSLPVTPGEPASISCQASQELVHMNRNTYLHWYQQKPGQAPRLLIYKVSNRFPGVPDRFSGSGSGTDFTLKISRVEAEDVGVYYCAQGTSVPFTFGQGTKLEIK
11 | 1.2 | dBBDu183H V63R/dBBDu072L (antibody, name in Kabat numbering, V domains shown) VH: QVQLVESGGGLVQPGRSLRLSCAASGFTFSNAWMHWVRQAPGKGLEWVAQIKDKGNAYAAYYAPSRKGRFTISRDDSKNSIYLQMNSLKTEDTAVYYCHYVHYASASTVLPAFGVDAWGQGTTVTVSS VL: DIVMTQSPLSLPVTPGEPASISCQASQELVHMNRNTYLHWYQQKPGQAPRLLIYKVSNRFPGVPDRFSGSGSGTDFTLKISRVEAEDVGVYYCAQGTSVPFTFGQGTKLEIK
12 | 1.1 | dBBDu183H V63E/dBBDu072L (antibody, name in Kabat numbering, V domains shown) VH: QVQLVESGGGLVQPGRSLRLSCAASGFTFSNAWMHWVRQAPGKGLEWVAQIKDKGNAYAAYYAPSEKGRFTISRDDSKNSIYLQMNSLKTEDTAVYYCHYVHYASASTVLPAFGVDAWGQGTTVTVSS VL: DIVMTQSPLSLPVTPGEPASISCQASQELVHMNRNTYLHWYQQKPGQAPRLLIYKVSNRFPGVPDRFSGSGSGTDFTLKISRVEAEDVGVYYCAQGTSVPFTFGQGTKLEIK
13 | 1.5 | dBBDu183H T100bS/dBBDu072L (antibody, name in Kabat numbering, V domains shown) VH: QVQLVESGGGLVQPGRSLRLSCAASGFTFSNAWMHWVRQAPGKGLEWVAQIKDKGNAYAAYYAPSVKGRFTISRDDSKNSIYLQMNSLKTEDTAVYYCHYVHYASASSVLPAFGVDAWGQGTTVTVSS VL: DIVMTQSPLSLPVTPGEPASISCQASQELVHMNRNTYLHWYQQKPGQAPRLLIYKVSNRFPGVPDRFSGSGSGTDFTLKISRVEAEDVGVYYCAQGTSVPFTFGQGTKLEIK
14 | 1.8 | dBBDu183H T100bY/dBBDu072L (antibody, name in Kabat numbering, V domains shown) VH: QVQLVESGGGLVQPGRSLRLSCAASGFTFSNAWMHWVRQAPGKGLEWVAQIKDKGNAYAAYYAPSVKGRFTISRDDSKNSIYLQMNSLKTEDTAVYYCHYVHYASASYVLPAFGVDAWGQGTTVTVSS VL: DIVMTQSPLSLPVTPGEPASISCQASQELVHMNRNTYLHWYQQKPGQAPRLLIYKVSNRFPGVPDRFSGSGSGTDFTLKISRVEAEDVGVYYCAQGTSVPFTFGQGTKLEIK
15 | 1.1 | dBBDu183H V63F/dBBDu072L (antibody, name in Kabat numbering, V domains shown) VH: QVQLVESGGGLVQPGRSLRLSCAASGFTFSNAWMHWVRQAPGKGLEWVAQIKDKGNAYAAYYAPSFKGRFTISRDDSKNSIYLQMNSLKTEDTAVYYCHYVHYASASTVLPAFGVDAWGQGTTVTVSS VL: DIVMTQSPLSLPVTPGEPASISCQASQELVHMNRNTYLHWYQQKPGQAPRLLIYKVSNRFPGVPDRFSGSGSGTDFTLKISRVEAEDVGVYYCAQGTSVPFTFGQGTKLEIK
